Target: T1, human MerTK on cells (human, UniProt Q12866 21-999)
T1 sequence: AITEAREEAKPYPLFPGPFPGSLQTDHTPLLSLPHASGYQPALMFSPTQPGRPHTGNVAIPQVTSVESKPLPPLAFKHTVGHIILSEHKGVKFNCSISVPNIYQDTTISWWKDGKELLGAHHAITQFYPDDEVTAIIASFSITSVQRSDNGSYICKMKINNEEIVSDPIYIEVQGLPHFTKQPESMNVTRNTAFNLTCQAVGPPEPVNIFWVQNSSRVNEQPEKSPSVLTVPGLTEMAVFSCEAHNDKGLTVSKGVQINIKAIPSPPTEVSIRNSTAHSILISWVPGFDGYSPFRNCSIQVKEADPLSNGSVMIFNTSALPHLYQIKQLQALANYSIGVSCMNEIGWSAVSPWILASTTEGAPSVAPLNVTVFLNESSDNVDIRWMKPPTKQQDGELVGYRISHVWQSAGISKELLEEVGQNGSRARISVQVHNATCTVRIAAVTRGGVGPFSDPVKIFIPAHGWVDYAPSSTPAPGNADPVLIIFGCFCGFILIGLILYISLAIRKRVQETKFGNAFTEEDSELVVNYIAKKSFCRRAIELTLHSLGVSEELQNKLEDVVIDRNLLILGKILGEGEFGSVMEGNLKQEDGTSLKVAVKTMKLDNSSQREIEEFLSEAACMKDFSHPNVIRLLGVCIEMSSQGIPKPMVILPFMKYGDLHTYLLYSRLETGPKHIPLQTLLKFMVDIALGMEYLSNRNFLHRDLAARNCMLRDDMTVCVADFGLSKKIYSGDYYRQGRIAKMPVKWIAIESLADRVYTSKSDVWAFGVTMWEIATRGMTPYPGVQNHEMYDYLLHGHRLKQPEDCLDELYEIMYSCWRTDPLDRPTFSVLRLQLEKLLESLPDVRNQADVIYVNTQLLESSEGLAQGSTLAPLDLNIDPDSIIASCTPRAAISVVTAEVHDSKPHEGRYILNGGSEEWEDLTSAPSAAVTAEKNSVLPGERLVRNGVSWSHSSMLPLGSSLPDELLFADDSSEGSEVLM
Assay: cell-based or functional assay

IC50 of blocking of Gas6-mediated pAKT activity in human M2c macrophages (HTRF): 0.531 nM
B1: MTK-22 (antibody, human IgG1, V domains shown)
VH: QVQLQQPGADLVEPGASVKLSCKASGYTFTSYWMHWVKQRPGQGLEWIGEIDPSDSSSNYNQKFKGKATLTVDKSSSTAYMHLNSLTSEDSAVYYCARRYYYGSLYFDNWGQGTTLTVSS
VL: DVVMTQSHKFMSTSVGDRVSITCKASQDVGTAIAWYQQKPGQSPKLLIYWASTRHTGVPDRFTGSRSGTVFTLTISNVQSEDLADYFCQQYTSYPLTFGSGTKLEIK

Source: patent US20240287204A1 (published 2024)
